In patent US20250277029A1, “CANNABINOID TYPE 1 RECEPTOR BINDING PROTEINS AND USES THEREOF” (AMGEN INC., priority 2022, published 2025):

T1: XCR1-SMALP (Homo sapiens, UniProt P46094)
T1 sequence (P46094 1-333): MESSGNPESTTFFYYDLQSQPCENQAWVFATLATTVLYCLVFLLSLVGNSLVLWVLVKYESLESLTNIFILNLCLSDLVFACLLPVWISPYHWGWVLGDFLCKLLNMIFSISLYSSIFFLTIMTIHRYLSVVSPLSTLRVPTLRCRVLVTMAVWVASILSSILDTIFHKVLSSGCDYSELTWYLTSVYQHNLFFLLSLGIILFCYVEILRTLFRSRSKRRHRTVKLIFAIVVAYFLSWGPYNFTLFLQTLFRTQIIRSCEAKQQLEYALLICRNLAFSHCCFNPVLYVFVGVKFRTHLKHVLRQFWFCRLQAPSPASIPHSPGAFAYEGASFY

B1: LIBC527997-1: LC-swapped affinity-matured 10D10 variant; HV SEQ ID NO: 226, LV SEQ ID NO: 225 (antibody, V domains shown)
VH: QVQLQESGPGLVKPSQTLSLTCTVSGGSIRRGGDYWAWIRQHPGKGLEWIGHIYQTGSTNYNPRFKGRATISVNTYKNQFSLKLSSVTAADTAVYYCARNYDTLTGYSYYYYGMDVWGQGTTVTVSS
VL: DIQMTQSPSSLSASVGDRVTITCRASQSISNYLNWYQQKPGKAPKLLIYAASSLHSGVPSRFSGSGSGTDFTLTISSLQPEDFASYYCQQYQSYPLTFGQGTKVEIKR
B2: LIBC527919-1: LC-swapped affinity-matured 10D10 variant; HV SEQ ID NO: 252, LV SEQ ID NO: 251 (antibody, V domains shown)
VH: QVQLQESGPGLVKPSQTLSLTCTVSGGSIRRGGDYWAWIRQHPGKGLEWIGHVYQTGSTAYNPNFKDRATISVNTYKNQFSLKLSSVTAADTAVYYCARNYDALSGYSYYYYGMDVWGQGTTVTVSS
VL: DIQLTQSPSSLSASVGDRVTITCRASQSIISYLNWYQQKPGKAPKLLIYAASSLRSGVPSRFSGSGSGTDFTLTISSLQPEDFATYYCQQYSNYPLTFGGGTRVEIKR
B3: LIBC523661-1: cognate affinity-matured 10D10 variant; HV SEQ ID NO: 98, LV SEQ ID NO: 97 (antibody, V domains shown)
VH: QVQLQESGPGLVKPSQTLSLTCTVSGGSIRRGGDYWSWIRQHPGKGLEWIGHIYYEGSTKYNPSFKGRATISVNTYKNQFSLKLSSVTAADTAVYYCARDYDPVTGHSYYYYGMDVWGQGTTVTVSS
VL: DIVMTQSPLSLPVTPGEPASISCRSSQSLLTSSGYNYVDWYLQKPGQSPQLLIYQGSNRASGVPDRFSGSGSGTDFTLKISRVEAEDVGVYYCRQARAIPRTFGQGTKVEIKR
B4: LIBC527814-1: LC-swapped affinity-matured 10D10 variant; HV SEQ ID NO: 236, LV SEQ ID NO: 235 (antibody, V domains shown)
VH: QVQLQESGPGLVKPSQTLSLTCTVSGGSIRRGGDYWGWIRQHPGKGLEWIGHVYQTGSTKYNPSFKDRATISVNTYKNQFSLKLSSVTAADTAVYYCARNYDTLTGYSYYYYGMDVWGQGTTVTVSS
VL: DIQMTQSPSTLSASVGDRVTITCRASQSISNYLNWYQQKPGKAPKLLIYAASSLHSGVPSRFSGSGSGTDFTLTISSLQPEDFASYYCQQYQSYPLTFGQGTKVEIKR
B5: LIBC680800-1: further VK1 LC-optimized affinity-matured variant (antibody, V domains shown)
VH: QVQLQESGPGLVKPSQTLSLTCTVSGGSIRRGGDYWAWIRQHPGKGLEWIGHIYQTGSTNYNPRFKGRATISVNTYKNQFSLKLSSVTAADTAVYYCARNYDTLTGYSYYYYGMDVWGQGTTVTVSS
VL: DIQMTQSPSSLSASVGDRVTITCRASQSISSYLNWYQQKPGKAPKLLIYSARALSSGVPSRFSGSGSGTDFTLTISSLQPEDFATYYCQQYRKFPLTFGGGTKVEIKR
B6: LIBC681593-1: further VK1 LC-optimized affinity-matured variant (antibody, V domains shown)
VH: QVQLQESGPGLVKPSQTLSLTCTVSGGSIRRGGDYWAWIRQHPGKGLEWIGHIYQTGSTNYNPRFKGRATISVNTYKNQFSLKLSSVTAADTAVYYCARNYDTLTGYSYYYYGMDVWGQGTTVTVSS
VL: DIQMTQSPSSLSASVGDRVTITCRASQSISSYLNWYQQKPGKAPKLLIYNARRLGSGVPSRFSGSGSGTDFTLTISSLQPEDFATYYCQQYRSSPVTFGGGTKVEIKR
B7: LIBC680562-1: further VK1 LC-optimized affinity-matured variant (antibody, V domains shown)
VH: QVQLQESGPGLVKPSQTLSLTCTVSGGSIRRGGDYWAWIRQHPGKGLEWIGHIYQTGSTNYNPRFKGRATISVNTYKNQFSLKLSSVTAADTAVYYCARNYDTLTGYSYYYYGMDVWGQGTTVTVSS
VL: DIQMTQSPSSLSASVGDRVTITCRASQSISSYLNWYQQKPGKAPKLLIYSARRLSSGVPSRFSGSGSGTDFTLTISSLQPEDFATYYCQQYAKSPITFGGGTKVEIKR
B8: LIBC680812-1: further VK1 LC-optimized affinity-matured variant (antibody, V domains shown)
VH: QVQLQESGPGLVKPSQTLSLTCTVSGGSIRRGGDYWGWIRQHPGKGLEWIGHVYQTGSTKYNPSFKDRATISVNTYKNQFSLKLSSVTAADTAVYYCARNYDTLTGYSYYYYGMDVWGQGTTVTVSS
VL: DIQMTQSPSSLSASVGDRVTITCRASQSISSYLNWYQQKPGKAPKLLIYSARRLSSGVPSRFSGSGSGTDFTLTISSLQPEDFATYYCQQYRSYPITFGGGTKVEIKR
B9: LIBC680574-1: further VK1 LC-optimized variant; HV SEQ ID NO: 460, LV SEQ ID NO: 459; 52778 in YTE format (antibody, V domains shown)
VH: QVQLQESGPGLVKPSQTLSLTCTVSGGSIRRGGDYWAWIRQHPGKGLEWIGHVYYTGSTKYNPSFKDRATISVNTYKNQFSLKLSSVTAADTAVYYCARNYDTLTGYSYYYYGMDVWGQGTTVTVSS
VL: DIQMTQSPSSLSASVGDRVTITCRASQSISSYLNWYQQKPGKAPKLLIYGARRLGSGVPSRFSGSGSGTDFTLTISSLQPEDFATYYCQQYSSLPVTFGGGTKVEIKR
modifications: YTE Fc format
notes: further VK1 LC-optimized variant; 52778 in YTE format
B10: LIBC673952-1: further cognate affinity-matured variant; HV SEQ ID NO: 368, LV SEQ ID NO: 367; 52777 in YTE format (antibody, V domains shown)
VH: QVQLQESGPGLVKPSQTLSLTCTVSGGSIRRGGDYWSWIRQHPGKGLEWIGHVYYTGQTTYNPSFRGRVTISVNTYKNQFSLKLSSVTAADTAVYYCARDYDILTGYSYYYYGLDVWGQGTTVTVSS
VL: DIVMTQSPLSLPVTPGEPASISCRSSQSLLHRSGYNYLDWYLQKPGQSPQLLIYQGSNRASGVPDRFSGSGSGTDFTLKISRVEAEDVGVYYCRQARALPRTFGQGTKVEIKR
modifications: YTE Fc format
notes: 52777 in YTE format
B11: LIBC674200-1: further cognate affinity-matured variant (antibody, V domains shown)
VH: QVQLQESGPGLVKPSQTLSLTCTVSGGSIRRGGDYWSWIRQHPGKGLEWIGHVYYTGQTAYNPNFRNRVRISVNTYKNQFSLKLSSVTAADTAVYYCARGYDVSGYSYYYYGMDVWGQGTTVTVSS
VL: DIVMTQSPLSLPVTPGEPASISCRSSQSLLHRSGYNYLDWYLQKPGQSPQLLIYLGSNRASGVPGRFSGSGSGTDFTLKISRVEAEDVGVYYCMQSLQTPRTFGQGTKVEIKR
B12: LIBC674090-1: further cognate affinity-matured variant (antibody, V domains shown)
VH: QVQLQESGPGLVKPSQTLSLTCTVSGGSIRRGGDYWSWIRQHPGKGLEWIGHIYYAGSTAYNPNFRGRVRISVNTYKNQFSLKLSSVTAADTAVYYCARGYDTSGYSYYYYGLDVWGQGTTVTVSS
VL: DIVMTQSPLSLPVTPGEPASISCRSSQSLLHRSGYNYLDWYLQKPGQSPQLLIYQGSNRASGVPDRFSGSGSGTDFTLKISRVEAEDVGVYYCMQSLQTPRTFGQGTKVEIKR
B13: LIBC674229-1: further cognate affinity-matured variant (antibody, V domains shown)
VH: QVQLQESGPGLVKPSQTLSLTCTVSGGSIRRGGDYWSWIRQHPGKGLEWIGHIYQTGQTKYNPSFKGRVRISVNTYKNQFSLKLSSVTAADTAVYYCARGYDVSGYSYYYYGMDVWGQGTTVTVSS
VL: DIVMTQSPLSLPVTPGEPASISCRSSQSLLHRSGYNYLDWYLQKPGQSPQLLIYQGSNRASGVPDRFSGSGSGTDFTLKISRVEAEDVGVYYCMQSLQTPRTFGQGTKVEIKR

Tested on: CB1-nanodisc
Experiment: Octet affinity assay with CB1-nanodisc
Type: binding, human
Details: 1:1 Langmuir model
Description: Affinity assay using Octet. The Octet@HTX (Sartorius, Germany) instrument was used to determine affinities of anti-CB1 antibodies. Prior to experiment, Streptavidin (SA) biosensors (ForteBio, #18-5021) were pre-hydrated for 10 min in Octet assay buffer containing 10 mM Tris (Fisher, #BP152-1), 150 mM NaCl (Fisher, #5271-10), 1 mM CaCl2) (Fisher, #BP510-500), 0.1 mg/mL BSA (BioShop, #ALB001.1), and 0.1% Triton-X 100 (Calbiochem, #9410-OP), pH7.4. SA biosensors were loaded with biotinylated anti-human Fc antibody (Invitrogen, #A18827) followed by one baseline step of 60 s in Octet assay buffer. Anti-CB1 antibodies were prepared in Octet assay buffer and captured by the anti-human Fc antibody prior to being submerged in wells containing different concentrations of CB1-nanodisc (#CB1-008, in-house) for 5 min, followed by 10 min dissociation. […] SA biosensors were used once without regeneration. For data evaluation, ForteBio Data Analysis v11.0 software was used. The kinetic rate constants, association rate constant (ka, M−1s−1), dissociation rate constant (kd, s−1), and the equilibrium rate constant (KD, M) were determined by using a 1:1 Langmuir model.

Molecule | Octet (nanodisc) k off [s⁻¹] | Octet (nanodisc) k on [M⁻¹ s⁻¹]
B1 | 0.00136 | 51800
B2 | 0.00339 | 56200
B3 | 0.00275 | 35700
B4 | 0.00198 | 56600

Target: T1, XCR1-SMALP
Experiment: Yeast-display non-specific binding to irrelevant XCR1-SMALP
Details: 25 nM; fold change compared to LIBC528116 (Fab), after background subtraction
From the text: All eighteen cognate variants met the stringent binding improvement threshold against huCB1I-GFP-SMALP and had minimal binding to irrelevant XCR1-SMALP and empty-ND (Table 32). […] For LIBC674043-1 and LIBC674200-1, VH R149S and VL G76D germline reversion mutations were also included in the panel of IgG1 SEFL2 mAbs produced for functional testing.

Molecule | 25 nM XCR1-SMALP-GFP, relative binding fold change
B5 | 0.47
B6 | 0.72
B7 | 0.64
B8 | 0.59
B9 | 0.56

Same assay, conditions: 50 nM; fold change compared to LIBC523797-1(Fab), after background subtraction

Molecule | 50 nM XCR1 SMALP, relative binding fold change
B10 | 0.59
B11 | 0.79
B12 | 0.74
B13 | 0.80

Tested on: diet-induced obese (DIO) huCB1 knock in (KI) mice
Experiment: Diet-induced obese huCB1 knock in mice, 30 mg/kg QW for 35 days: body weight, food intake, fat mass, liver weight
Type: in vivo, mouse
Details: YTE format
Description: The further affinity matured antibodies LIBC673952 (52777) and LIBC680574 (52778) in YTE format (Dall'Acqua et al., The Journal of Immunology, 169: 5171-5180 (2002)) was scaled up for testing in diet-induced obese (DIO) transgenic mice with huCB1 knocked in. […] The antibodies (52777, 52778, and 37940) and a control antibody (huIgG control) were administered to the mice at 30 mg/kg QW for 35 days, and the body weight and food intake of the animals were measured every 3-4 days and the results are shown in FIGS. 10A and 10B.

Molecule | average daily food intake | body weight of the animals
B10 | did not change significantly | reduced body weight
B9 | did not change significantly | reduced body weight
